The record followed here is US20250144213A1 (UTC THERAPEUTICS SHANGHAI, published 2025).

Test [1] concerns the target T1, CD123-Fc recombinant protein (human, UniProt P26951 19-305).
T1 construct: Soluble staining reagent; also called CD123-Fc protein; not shown: Fc part
T1 sequence (looked up): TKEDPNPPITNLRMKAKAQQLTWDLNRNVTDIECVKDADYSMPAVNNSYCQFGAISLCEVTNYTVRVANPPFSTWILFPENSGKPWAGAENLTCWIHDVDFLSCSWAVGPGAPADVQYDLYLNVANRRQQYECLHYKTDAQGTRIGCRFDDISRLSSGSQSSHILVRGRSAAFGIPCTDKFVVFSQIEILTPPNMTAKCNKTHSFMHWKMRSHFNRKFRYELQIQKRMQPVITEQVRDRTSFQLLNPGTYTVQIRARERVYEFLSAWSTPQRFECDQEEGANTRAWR
In words: FACS staining of CAR-T cells with CD123-Fc recombinant protein (FIG. 28).

Test [2] concerns the target T2, BCMA-Fc recombinant protein (human, UniProt Q02223 1-54).
T2 construct: Soluble staining reagent, 5 µg/ml; not shown: Fc part
T2 sequence (looked up): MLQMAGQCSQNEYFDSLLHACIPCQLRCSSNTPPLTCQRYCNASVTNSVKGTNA
In words: flow cytometry: lentivirally transduced CAR-T cells stained with 5 µg/ml BCMA-Fc, detected with anti-human IgG Fc (FIG. 17B). In general terms: In flow cytometry, cells or beads pass a laser one at a time.

B1: anti-CD123 scFv-C32 (scFv)
scFv: QSVVTQPPSASGTPGQRVTISCSGSSSNIEGNTVSWYQQFPGAAPKLLIYSNSYRASGVPDRFSGSKSGTSASLAISELQSEDEADYYCSAWDDSLNGPVFGGGTKVTVLGGGGSGGGGSGGGGSEVQLVESGGGLVQPGGSLRLSCAASGFTFTSYAMNWVRQAPGKGLEWVSDISSSSSYIYYADSVKGRFTISRDNAKNSLYLQMNSLRAEDTAVYYCARDLYSGYDYGYYYGMDVWGQGTTVTVSS
notes: also called C32 scFv
For B1, the binding result in test [1] was “binds”.

B2: anti-CD123 scFv-C27 (scFv)
scFv: EIVLTQSPGTVSLSPGERATLSCRASQRVSATYLAWYQQKPGQAPRLLMYGGSRRATGIPDRFSGSGSGTDFTLTIRRLEPEDSAVYYCQQYGSSPLTFGGGTKLEIKGGGGSGGGGSGGGGSQVQLVQSGSELKKPGASVKVSCKASGYTFTSYGISWVRQAPGQGLEWMGWISAYNGNTNYAQKLQGRVTMTTDTSTSTAYMELRSLRSDDTAVYYCARDPYDDYGGNSRDEEDAFDIWGQGTTVTVSS
notes: also called C27 scFv
Consider B2, for which, in test [1], the binding result was “binds”.

B3: anti-BCMA scFv BCMA34 (scFv)
scFv: QPGLTQPPSVSKGLRQTATLTCTGNSNNVGNQGAAWLQQHQGHPPKLLSYRNNNRPSGISERFSASRSGNTASLTITGLQPEDEADYYCSAWDSSLSARVFGGGTKLTVLGGGGSGGGGSGGGGSQVQLVQSGAEVKKPGASVKVSCKTSGYTFSNPFVHWVRQAPGQGLEWVGIINLSGGDTLYAQKFQGGVTMTRDTSTNTAYMELTSLTFEDTAVYYCARDQAGFGDSAYWGQGTLVTVSS
notes: also called BCMA34 scFv; BCMA34 CAR
With B3, the binding result in test [2] is recorded as “binds”.

B4: anti-CD123 scFv-C33 (scFv)
scFv: DIRLTQSPSSLSASVGDTITITCRASQDISSWIAWYQQKPGTAPRLLIYAASSLQSGVPSRFSGSGSGTDFTLTINSLHPEDFATYYCQQGSTFPLAFGGGTKVEIKGGGGSGGGGSGGGGSQVQLVQSGAEVKKPGSSVKVSCKASGGTFSSYAISWVRQAPGQGLEWMGGIIPIFGTANYAQKFQGRVTITADESTSTAYMELSSLRSEDTAVYYCARGLDNWNDVGWFDPWGQGTLVTVSS
notes: also called C33 scFv
B4: the binding result in test [1] is recorded as “binds”.

B5: anti-CD123 scFv-C30 (scFv)
scFv: AIRLTQSPSSLSASVGDRVTITCQASQNINNYLNWYQQKSGKAPKLLIYDASNLEAGVPSRFSGSASGTDFTFTISSLQPEDIATYYCQQNDNLPLTFGQGTRLEIKGGGGSGGGGSGGGGSEVQLVESGGGVVRPGGSLRLSCAASGFTFGDYGMSWVRQAPGKGLEWVSGINWNGGSTGYADSVKGRFTISRDNAKNSLYLQMNSLRAEDTALYYCARDRAPDYGDYLQVGTTDYWGQGTLVTVSS
notes: also called C30 scFv
On to B5, for which, in test [1], the binding result is “binds”.

B6: anti-CD123 scFv-C26 (scFv)
scFv: QSVLTQPPSASGTPGQRVTISCSGSRSNIGSNTVSWYQQFPGTAPKLLIYLNNQRPSGVPDRFSGSKSGTSASLAISGLQSEDEAEYYCATWDDDLNGVFGGGTKLTVLGGGGSGGGGSGGGGSEVQLVESGGGLVQPGGSLRLSCAASGFTLSNFEMNWVRQAPGRGLEWVSYISATTSATSYADSVKGRFTISRDNAKNSLYLQMNSLRAEDTAVYYCARVRDGYNFGYYYYYMDVWGKGTTVTVSS
notes: also called C26 scFv
Take B6: the binding result in test [1] was “binds”.

B7: anti-CD123 scFv-C34 (scFv)
scFv: QSALTQPPSASGSPGQSVTISCTGTRSDVGAYNYVSWYQHHPGKAPKLMLYDVSKRPSGVSDRFSGSKSGNTASLTVSGLQSEDEANYYCSSYAGSGKYVFGSGTELTVLGGGGSGGGGSGGGGSEVHLVESGGGLVKPGGSLRLSCAASGFTFSDTWMSWVRQAPGKGLEWVGRIKSKTDGGTTNYAAPVKGRFTISRDDSKTTLFLQMNSLKTEDTAVYYCTGGDYPLFAYWGQGALVTVSS
notes: also called C34 scFv
Take B7: in test [1], the binding result is on record as “binds”.

B8: anti-BCMA scFv BCMA33 (scFv)
scFv: QSALTQPPSASGSPGQSVTISCTGTSSDVGGYNYVSWYQQHPGKAPKLMIYEVSKRPSGVPDRFSGSKSGNTASLTVSGLQAEDEADYFCSSYAGSNNFVVFGGGTKLTVLGGGGSGGGGSGGGGSEVQLVESGGGLVQPGRSLRLSCAASGFTFDDYAMHWVRQAPGKGLEWVSGISWNSGSIGYADSVKGRFTISRDNAKNSLYLQMNSLRAEDTALYYCAKVGASAALGAFDIWGQGTMVTVSS
notes: also called BCMA33 scFv; BCMA33 CAR
With B8, the binding result in test [2] was “binds”.
